Reference: US20060233822A1 (YANG SHENG TANG, published 2006)
Numbering of substitutions follows the chain as printed.

What was measured:
C149-mut-8C11 = assay: dot blot of E. coli lysate supernatant
7-peptide HPTLLRI = assay: phage display panning on coated MAb; 5 clones
7-peptide PVQMPWL = assay: phage display panning on coated MAb; 1 clone
7-peptide ITNDFKQ = assay: phage display panning on coated MAb; 1 clone
7-peptide SLPTLTL = assay: phage display panning on coated MAb; 1 clone
7-peptide YQDSAKT = assay: phage display panning on coated MAb; 2 clones
7-peptide NHWASPR = assay: phage display panning on coated MAb; 1 clone
7-peptide SSYEWFI = assay: phage display panning on coated MAb; 1 clone
7-peptide SSMFFYR = assay: phage display panning on coated MAb; 1 clone
7-peptide VSWNSLV = assay: phage display panning on coated MAb; 1 clone
7-peptide SAPSSKN = assay: phage display panning on coated MAb; 1 clone
7-peptide INQKPTL = assay: phage display panning on coated MAb; 1 clone
7-peptide SLVTGIL = assay: phage display panning on coated MAb; 1 clone
polypeptide 209 = polypeptide 209 (hepatitis E virus); assay: ELISA with 8C11
7-peptide ALWGPTS = assay: phage display panning on coated MAb; 2 clones
C149-mut-8H3 = biological target: T1, C149-mut-8H3; assay: dot blot of E. coli lysate supernatant
T1 chain: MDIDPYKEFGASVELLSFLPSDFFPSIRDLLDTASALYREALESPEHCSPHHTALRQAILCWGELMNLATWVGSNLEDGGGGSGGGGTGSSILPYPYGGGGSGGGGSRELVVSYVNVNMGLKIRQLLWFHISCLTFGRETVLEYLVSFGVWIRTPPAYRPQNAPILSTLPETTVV

7-peptide STLFMNF = assay: phage display panning on coated MAb; 1 clone
7-peptide SPKMPIL = assay: phage display panning on coated MAb; 1 clone
7-peptide SAHVLST = assay: phage display panning on coated MAb; 1 clone
7-peptide SPPNVRT = assay: phage display panning on coated MAb; 1 clone

B1: monoclonal antibody 8C11 (antibody, V domains shown)
VH: QVTLKESGPGILQPSQTLSLTCSFSGFSLSTSGMGVGWIRQPSGKGLEWLAHIWWDDVKRYSPALKSRLTISKDTSSSQLFLKIASVDTADTATYYCARIKSVITTGDYALDYWGQGTSVAVSS
VL: DIQMTQSPASLSVSVGETVTITCRASEIIYSNLAWYQQKQGKSPQLLVYSATNLAEGVPSRFSGSGSGTQYSLKINSLQSEDFGSYYCQHFWGNPWTFGGGTKLEIKR
notes: also called MAb 8C11; HRP-8C11
B1: binds (C149-mut-8C11); binds (7-peptide HPTLLRI); binds (7-peptide PVQMPWL). B1: binds (7-peptide ITNDFKQ); binds (7-peptide SLPTLTL).

B2: monoclonal antibody 13D8 (antibody, V domains shown)
VH: DVQLQESGPGLVKPSQSLSLSCSVTGYSITSGYYWNWIRQFPGNKLEWMGYIGYDGSNKYNPSLKNRISITRDTSKNQFFLKLTSVTTGDTATYYCVRDVKYYFDYWGQGTTVTVSS
VL: B1 VL with I28N, S50A, E56D, N76S, N94S
notes: also called MAb 13D8; HRP-13D8
B2: binds (7-peptide YQDSAKT); binds (7-peptide NHWASPR); binds (7-peptide SSYEWFI). B2: binds (7-peptide SSMFFYR); binds (7-peptide VSWNSLV); binds (7-peptide SAPSSKN). B2: binds (7-peptide INQKPTL); binds (7-peptide SLVTGIL).

B3: monoclonal antibody 8H3 (antibody, V domains shown)
VH: QVQLKESGPGLVAPSQSLSITCTVSGFSLIGYGVNWVRQPPEKGLEWLGMIWGDGSTDYNSALKSRLSITKDNSKSQVFLKMNSLQTDDTARYYCAMGVRPDPFDYWGQGTLVTVSA
VL: NIMMTQSPSSLAVSAGEKVTMSCKSSQSVLYSSNQKNYLAWYQQKPGQSPKLLIYWASARESGVPDRFTGSGSGTDFTLTINSVQTEDLAVYYCHQYLSSYTFGGGTKLEIKR
notes: also called MAb 8H3; HRP-8H3
For B3, the “8C11 increases 8H3's reactivity” value (polypeptide 209) was 3 fold, the binding result (7-peptide ALWGPTS) was “binds” and the binding result (C149-mut-8H3) was “binds”. B3: binds (7-peptide STLFMNF); binds (7-peptide SPKMPIL); binds (7-peptide SAHVLST). B3: binds (7-peptide SPPNVRT).
